Laboratory results taken from US20100209426A1, “INHIBITORS OF PROGASTRIN-INDUCED REPRESSION OF ICAT FOR TREATING AND/OR PREVENTING COLORECTAL CANCER, ADENOMATOUS POLYPOSIS OR METASTASIS DISPLAYING PROGASTRIN-SECRETING CELLS AND CELLS IN WHICH THE BETA-CATENIN/TCF-MEDIATED TRANSCRIPTIONAL PATHWAY IS CONSTITUTIVELY ACTIVE” (INSERM (INSTITUT NATIONAL DE LA SANTE ET DE LA REC HERCHE …, priority 2006, published 2010).
Where no end group is shown, it is not given here.

Columns and labels:
[1] = test system: β-catenin/Tcf-4 transcriptional activity; test: TOP/FOP Luciferase reporter gene assay in SW480 cells; format: cell-based
Experimental: The protocol used to measure the transcriptional activity of TCF/LEF-1 was described before (Morin et al., 1997). Briefly, cells were transfected with 500 ng of TCF/LEF-1 reporter (pTOP-FLASH), or control vector (pFOP-FLASH) and with 25 ng pCMV-Renilla. Luciferase activity was quantified using the Dual luciferase reporter assay system (Promega), and was normalized relative to the activity of Renilla.

ICAT = ICAT expression in SW480 cells (RT-QPCR, immunoblotting); format: cell-based, human
Experimental: (§1) 2.5 μg of total RNA was pretreated with DNAse RQ1 (Promega) for 30 min at 37° C. and used for reverse transcription with M-MLV reverse transcriptase (In vitrogen). Quantitative PCR was carried out using the LightCycler FastStart DNA MasterPlus SYBR Green I kit (Roche Diagnostics, Meylan, France), under the following conditions: Actin: denaturation during 10 min at 95° C., amplification for 50 cycles: 10 sec at 95° C., 6 sec at 58° C., 11 sec at 72° C. Melting curve: 0 sec at 95° C., 30 sec at 68° C., 0 sec at 95° C. and cooling was for 2 min at 40° C.: c-myc, ILK, chromogranin A and GAPDH amplification: denaturation during 10 min at 95° C., amplification for 50 cycles: 10 sec at 70° C., 6 sec at 58° C., 13 sec at 72° C. The melting curve was 0 sec at 95° C., 30 sec at 80° C., 0 sec at 95° C. and cooling was for 2 min at 40° C. Progastrin, Muc-2, ALP and ICAT amplification: denaturation during 10 min at 95° C., amplification during 50 cycles with: 10 sec at 70° C., 6 sec at 95° C., 11 sec at 72° C. The melting curve was 0 sec at 95° C., 30 sec at 80° C., 0 sec at 70° C. and cooling was for 2 min at 40° C. […]
(§2) Protein lysates, immunoprecipitations and immunoblotting were performed as described before (Hollande et al., 2003) Proteins were visualized using ECL Plus (Amersham Biosciences) and the bands were quantified by densitometry using ImageJ 1.32J (NIH, Bethesda, Md.).

SW480 cells [2] = test: Differentiation and apoptosis of SW480 cells after transient siRNA transfection; format: cell-based, human
Experimental: The day before transfection, SW480 cells were seeded in 24-well plates (5×10^4 cells/well). Cells were transfected with 100 pmol of rhodamine tagged GAS-specific or β-galactosidase-specific […], and 5 μl/well of Exgen 500 (Euromedex), according to the manufacturer's instructions. 48 hr or 72 hr after transfection, cells were lysed (for immunoblotting and PCR) or fixed in 1% paraformaldehyde for immunostaining.
2.5 μg of total RNA was pretreated with DNAse RQ1 (Promega) for 30 min at 37° C. and used for reverse transcription with M-MLV reverse transcriptase (In vitrogen). Quantitative PCR was carried out using the LightCycler FastStart DNA MasterPlus SYBR Green I kit (Roche Diagnostics, Meylan, France), under the following conditions: Actin: denaturation during 10 min at 95° C., amplification for 50 cycles: 10 sec at 95° C., 6 sec at 58° C., 11 sec at 72° C. Melting curve: 0 sec at 95° C., 30 sec at 68° C., 0 sec at 95° C. and cooling was for 2 min at 40° C.: c-myc, ILK, chromogranin A and GAPDH amplification: denaturation during 10 min at 95° C., amplification for 50 cycles: 10 sec at 70° C., 6 sec at 58° C., 13 sec at 72° C. The melting curve was 0 sec at 95° C., 30 sec at 80° C., 0 sec at 95° C. and cooling was for 2 min at 40° C. Progastrin, Muc-2, ALP and ICAT amplification: denaturation during 10 min at 95° C., amplification during 50 cycles with: 10 sec at 70° C., 6 sec at 95° C., 11 sec at 72° C. The melting curve was 0 sec at 95° C., 30 sec at 80° C., 0 sec at 70° C. and cooling was for 2 min at 40° C. Primers used for amplification of selected genes were: GAPDH-sense: 5′[…]3′ (SEQ ID No 9) antisense: 5′[…]3′ (SEQ ID No 10); Actin-sense: 5′[…]3′ (SEQ ID No 11); antisense: 5′[…]3′ (SEQ ID No 12); ILK-sense: 5′[…]3′ (SEQ ID No 13); antisense: 5′ […]3′ (SEQ ID No 14); ICAT-sense: 5′[…]3′ (SEQ ID No 15); antisense: 5′[…]3′ (SEQ ID No 16); c-myc-sense: 5′[…]3′ (SEQ ID No 17); antisense: 5′[…]3′ (SEQ ID No 18); human progastrin-sense: 5′[…]3′ (SEQ ID No 19); antisense: 5′[…]3′ (SEQ ID No 20); Muc-2-sense: 5′[…]3′ (SEQ ID No 21); antisense: 5′[…]3′ (SEQ ID No 22); Alkaline Phosphatase-sense: 5′[…]3′ (SEQ ID No 23); antisense: 5′[…]3′ (SEQ ID No 24); Chromogranin A-sense: 5′[…]3′ (SEQ ID No 25); antisense: 5′[…]3′ (SEQ ID No 26).
(§3) Immunofluorescent staining was performed as described previously (Hollande et al., 2003) Slides were then observed using a laser scanning LEICA sp2 confocal microscope with a x40 oil immersion lens.

[3] = test system: Tcf-4 target genes (c-myc, cyclin D1, Sox-9 and claudin-1); test: Expression of Tcf-4 target genes in SW480/GAST(−) cells; format: cell-based, human; conditions: progastrin-depleted SW480/GAST(−) cells, treatment with the recombinant peptide (5 nM, 72 h)
Experimental: as §1, §2

Akt/PKB = test: Ser473 phosphorylation of Akt/PKB in SW480 cells (Western blotting); format: cell-based, human; conditions: SW480/GAST(−) cells, 5 nM recombinant progastrin
Experimental: as §2

ILK = ILK expression and immune complex kinase assay in SW480 cells; format: cell-based, human; conditions: SW480/GAST(−) cells, 5 nM recombinant progastrin
Experimental: as §2
The reaction was started by the addition of 25 μl of kinase buffer (50 mM Hepes pH 7.0, 1 mM MnCl2, 1 mM Na orthovanadate, 2 mM NaF, 5 μg Myelin Basic Protein (Sigma)) with 0.5 μg of ATP ([…], 1 μCi[γ-^32P]ATP) per tube, and incubated at 30° C. for 20 min. The reaction was terminated with the addition of 10 μl of 4× sample buffer. The tubes were centrifuged at 10,000 g for 1 min and the proteins were resolved on a 14% SDS-page gel. Phosphorylation of the substrate was visualized by autoradiography (Marotta et al., 2003).

[4] = test system: nuclear compartmentation of β-catenin and Tcf-4; test: Immunofluorescent staining of β-catenin and Tcf-4 in SW480 cells; format: cell-based, human; conditions: SW480/GAST(−) cells, 5 nM recombinant progastrin
Experimental: as §3

[5] = test system: β-catenin/Tcf-4 and β-catenin/ICAT association; test: Co-immunoprecipitation of dephosphorylated β-catenin with Tcf-4 and ICAT in SW480 cells; format: cell-based, human; conditions: SW480/GAST(−) cells treated with recombinant progastrin
Experimental: as §2

SW480 cells [6] = test: Tumor formation of SW480 cells injected subcutaneously in BALB/c nude mice; format: in vivo, mouse; conditions: SW480/GAST(−) cells stably expressing shRNA, subcutaneous injection in Balbc/nude mice, within 7 weeks, versus SW480/βgal(−)
Source text: Transfection of gastrin gene antisense and control cDNA into DLD1 cell lines was described in (Hollande et al., 2003). In order to generate progastrin shRNA, the following oligonucleotides were cloned into pSilencer vector (Ambion) and transfected in SW480 cells: sense: 5′-[…] TT-3′ (SEQ ID No 1) and antisense: 5′-[…] 3′ (SEQ ID No 2). β-galactosidase oligonucleotides used to generate control shRNA were: sense: 5′ […] 3′ (SEQ ID No 3); antisense 5′[…] 3′ (SEQ ID No 4). 5×10^4 cells/well were seeded and transfected 24 h later with 500 ng of pSilencer/progastrin-shRNA or pSilencer/β-galactosidase-shRNA, 50 ng of pcDNA-3, and 5 μl/well of Exgen 500 (Euromedex). Selection was performed with Neomycin (500 ng/μl).
In vivo experiments were performed following the French guidelines for experimental animal studies (Direction des Services Vétérinaires, Ministére de l'Agriculture, Agreement N^oB34-172-27) and fulfill the UKCCCR guidelines for the welfare of animals in experimental neoplasia. 2×10^6 cells were injected subcutaneously into 6-weeks-old athymic BALB/c-nu/nu (nude) mice. Tumor growth was followed regularly thereafter (Estimated tumor volume=(Length×width×thickness)/2).

[7] = treatment of CRC cells with short gastrin forms or CCK-B receptor antagonist (FIG. S2)
[8] = transient transfection with siRNA
[9] = amidated and glycine-extended gastrins

`Cc1cccc(NC(=O)N[C@@H]2N=C(c3ccccc3)c3ccccc3N(C)C2=O)c1` [L365, 260] was tested, and the β-catenin/Tcf-4 activity [1, 7] was “did not affect”.

`COc1cccc(-c2cc(=O)c3ccccc3o2)c1N` [PD98059] was tested, and the β-catenin/Tcf-4 activity ([1]; SW480 cells, 1 μM PD98059 (ERK1/2 pathway inhibition)) was “did not affect” and the ICAT expression (ICAT; SW480 cells, 1 μM PD98059) was “did not affect”.

For `CC(C)(C)n1nc(-c2ccc(Cl)cc2)c2c(N)ncnc21` [PP2], the β-catenin/Tcf-4 activity ([1]; SW480 cells, 10 μM PP2 (Src pathway inhibition)) was “did not affect” and the ICAT expression (ICAT; SW480 cells, 10 μM PP2) was “did not affect”.

For “GAST-specific siRNA oligonucleotides: rhodamine-tagged siRNA directed against the human GAST gene; siRNAs hPG sense 5′-GAAGAAGCCUAUGGAUGGATT-3′ (SEQ ID No 27), antisense SEQ ID No 28 (antisense UCCAUCCAUAGGCUUCUUCTT; rhodamine-tagged siRNA, tag position not given here)”, the caspase-3 activation (SW480 cells [2]; [8]) was “detection of caspase-3 activation”, the “expression of genes encoding chromogranin A or enterocyte-specific alkaline phosphatase” value (SW480 cells [2]; [8]) was “without detectable alterations” and the “expression of the goblet cell-specific gene Muc-2” value (SW480 cells [2]; transient transfection with siRNA, versus β-galactosidase siRNA) was “significant induction”.

For “amidated gastrin17: COOH terminally amidated gastrin, maturation product of progastrin (QGPWLEEEEEAYGWMDF-NH2; ends and bridges not checked) [reference compound]”, the β-catenin/Tcf-4 activity [1, 7] was “did not affect” and the “differentiation and apoptosis phenotypes of GAST siRNA-transfected cells” value (“differentiation and apoptosis phenotypes” below) (SW480 cells [2]; [9]) was “had no effect”.

B1: recombinant progastrin: full-length progastrin (1-80) prohormone encoded by the GAST gene; recombinant peptide or secreted by CRC cells (protein)
chain: SWKPRSQQPDAPLGTGANRDLELPWLEQQGPASHHRRQLGPQGPPHLVADPSKKQGPWLEEEEEAYGWMDFGRRSAEDEN
For B1, the “β-catenin/Tcf-4 transcriptional activity (TOP/FOP luciferase reporter)” value ([1]; SW480/GAST(−) clones, 5 nM recombinant progastrin, 72 h) was “restore a strong level of transcription”, the ICAT expression (ICAT; SW480/GAST(−) cells, 5 nM recombinant progastrin) was “De novo repression” and the “expression of Tcf-4 target genes (c-myc, cyclin D1, Sox-9 and claudin-1)” value [3] was “significantly stimulated”. The “differentiation and apoptosis phenotypes” value (SW480 cells [2]; recombinant progastrin for 48 h) was “reversed”, the “serine 473-phosphorylation of Akt/PKB” value (Akt/PKB) was “reinstated” and the “decrease of expression and activity of ILK” value (ILK) was “partially reversed”. The “nuclear compartmentation of β-catenin and Tcf-4” value [4] was “partially restored” and the “binding partner of β-catenin (Tcf-4 versus ICAT)” value [5] was “preferentially bound to Tcf-4”.

B2: glycine-extended gastrin17: glycine-extended gastrin, one of the products of progastrin maturation (peptide)
peptide: SWKPRSQQPDAPLGTGANRDLELPWLEQQGPASHHRRQLGPQGPPHLVADPSKKQGPWLEEEEEAYGWMDFGRRSAEDEN
B2 was tested, and the β-catenin/Tcf-4 activity [1, 7] was “did not affect” and the “differentiation and apoptosis phenotypes” value (SW480 cells [2]; [9]) was “had no effect”.

B3: short hairpin RNA (shRNA), directed against the GAST gene: progastrin shRNA, oligonucleotides SEQ ID No 1 and SEQ ID No 2 cloned into pSilencer vector, stably expressed in SW480 cells (nucleic acid)
DNA 1: GAAGAAGCCTATGGATGGATTCAAGAGAAGGTAGGTATCCGAAGAAGTTTTTT
DNA 2: AATTAAAAAACTTCTTCGGATACCTACCTTCTCTTGAATCCATCCATAGGCTTCTTCGGCC
For B3, the “ability to form tumors” value (SW480 cells [6]) was “greatly reduced”.
